Measured values reported in patent publication US12649008B2, “Peptide receptor radionuclide therapy” (The Regents of the University of California, priority 2020, dated 2026).
Read-outs that look alike come from different tables or passages of the source.

How the values were obtained:
[1] = Biodistribution in mice bearing BxPC-3 tumors; type: in vivo; details: female, nu/nu nude, mouse, iv, total radioactivity; for tissue uptake at 1 h: 1 h p.i.; for tissue uptake at 4 h: 4 h p.i.; for tissue uptake at 24 h: 24 h p.i.; for tissue uptake at 48 h: 48 h p.i.; for tissue uptake at 72 h: 72 h p.i.
Protocol: (§1) Female nu/nu nude mice (6-8 weeks old) were purchased from Charles River Laboratories (Wilmington, MA, USA) and handled according to the UC Davis Institutional Animal Care and Use Committee. BxPC-3 cells (5×10^6) in 100 μl 1:1 GFR-Matrigel: serum-free RPMI were implanted subcutaneously into the left shoulder flank and allowed to grow for approximately 2 weeks (therapy study) and 3 weeks (0.5-1 cm in diameter, for imaging and biodistribution studies). All cells were evaluated with flow cytometry before injection to confirm integrin expression levels. Food and water were available ad libitum.
(§2) For blocking studies, respective non-chelated cold peptide (30 mg/kg, 10 mg/mL (DOTA-5G) and 48 mg/kg, 16 mg/mL (DOTA-ABM-5G) solution in PBS) was injected 10 min. before the formulated radiotracer. At each time point, the mice (n=3/time point/radiotracer) were anesthetized and sacrificed. The tissues were collected, rinsed with PBS, and the radioactivity of each measured with a gamma counter. Radioactivity concentrations were calibrated, decay-corrected, and expressed as percent of injected dose per gram of tissue (% ID/g).

[2] = system: BxPC-3 (αvβ6 (+)) tumors; assay: Biodistribution in mice bearing BxPC-3 tumors; type: in vivo
Protocol: as §1, §2

[3] = Blocking study (cold peptide 10 min before radiotracer), biodistribution; type: in vivo, mice; details: female, nu/nu nude, mouse, BxPC-3 tumor, iv, total radioactivity; 4 h p.i.; DOTA-ABM-5G 48 mg/kg 10 min before
Protocol: as §1, §2

[4] = system: BxPC-3 (αvβ6 (+)) tumors; assay: as above; type: in vivo, mice; details: 4 h p.i.
Protocol: as §1, §2

[5] = system: αvβ6 (+) BxPC-3 tumors; assay: In vivo targeted radionuclide therapy; parameters: species or system mice
Protocol: as §1
For in vivo targeted radionuclide therapy, mice were implanted subcutaneously with BxPc-3 tumor cells 14 days before start of treatment. Mice were randomly chosen and divided into four treatment groups: Control Saline (Group 1, n=5); Control Peptide DOTA-ABM-5G (Group 2, n=6); 1×74 MBq [^177Lu]Lu DOTA-ABM-5G (Group 3, n=10); and 2×37 MBq [^177Lu]Lu DOTA-ABM-5G (Group 4, n=7). Average tumor volume at the start of the treatment was 14-218 mm^3. Group 2 received 20 μg of peptide DOTA-ABM-5G per mouse as a control. Group 3 received 74 MBq on day 14 post-tumor implant (treatment day 0), and Group 4 received two doses of 37 MBq on day 14 and 21 post-tumor implant (treatment days 0 and 7), at a specific activity of 18.5 MBq/nmol. Body weights and tumor volumes were measured the day before treatment, and twice a week post-treatment throughout the study. Tumor volume (TV) was determined according to the equation TV=(π/6)*L*W*H, where L is the longest axis, W is the axis perpendicular to L and H is perpendicular to the plane of L and W. End point determination was based on the longest axis of TV exceeding 2 cm, active ulceration, or compromised health of the mouse, including >20% loss of body weight from the start of the study. Survival curves are depicted as a Kaplan-Meier plot, using start of treatment as day 0.

[6] = BxPC-3 tumor, read-out: uptake BxPC-3 tumor
[7] = bladder, read-out: uptake Bladder
[8] = gall bladder, read-out: uptake Gall Bladder
[9] = kidneys, read-out: uptake Kidneys
[10] = large intestines, read-out: uptake Lg Intestines
[11] = muscle, read-out: uptake Muscle
[12] = pancreas, read-out: uptake Pancreas
[13] = small intestines, read-out: uptake Sm Intestines
[14] = spleen, read-out: uptake Spleen
[15] = stomach, read-out: uptake Stomach

Work on CNC(=O)C(CCCCNC(=O)C(CC(=O)O)NC(=O)CCCNC(=O)CCCc1ccc(I)cc1)NC(=O)CN1CCN2CCN3CCN(CC1)CC(=O)[O][177Lu]([O]C(=O)C2)[O]C(=O)C3 (centres unmarked) [[^177Lu]Lu DOTA-ABM-5G] yielded a tissue uptake at 1 h [1, 6] of 4.54 ± 0.42 %ID/g, a tissue uptake at 4 h [1, 6] of 7.15 ± 3.04 %ID/g and a tissue uptake at 24 h [1, 6] of 5.25 ± 0.71 %ID/g. For the same compound, the tissue uptake at 48 h [1, 6] was 5.12 ± 0.47 %ID/g, the tissue uptake at 72 h [1, 6] was 5.29 ± 0.75 %ID/g and the tissue uptake at 1 h [1, 7] was 6.75 ± 2.39 %ID/g. For the same compound, the tissue uptake at 24 h [1, 7] was 2.91 ± 0.16 %ID/g, the tissue uptake at 48 h [1, 7] was 2.69 ± 0.33 %ID/g and the tissue uptake at 72 h [1, 7] was 3.29 ± 0.63 %ID/g. For the same compound, the tissue uptake at 1 h ([1]; blood, read-out: uptake Blood) was 5.36 ± 0.71 %ID/g, the tissue uptake at 24 h ([1]; blood, read-out: uptake Blood) was 0.08 ± 0.01 %ID/g and the tissue uptake at 48 h ([1]; blood, read-out: uptake Blood) was 0.02 %ID/g. It also gave a tissue uptake at 72 h ([1]; blood, read-out: uptake Blood) of 0.01 %ID/g, a tissue uptake at 1 h ([1]; bone, read-out: uptake Bone) of 0.66 ± 0.15 %ID/g and a tissue uptake at 24 h ([1]; bone, read-out: uptake Bone) of 0.27 ± 0.08 %ID/g. It also gave a tissue uptake at 48 h ([1]; bone, read-out: uptake Bone) of 0.16 ± 0.19 %ID/g, a tissue uptake at 72 h ([1]; bone, read-out: uptake Bone) of 0.19 ± 0.13 %ID/g and a tissue uptake at 1 h ([1]; brain, read-out: uptake Brain) of 0.14 ± 0.01 %ID/g. It also gave a tissue uptake at 24 h ([1]; brain, read-out: uptake Brain) of 0.04 ± 0.01 %ID/g, a tissue uptake at 48 h ([1]; brain, read-out: uptake Brain) of 0.02 %ID/g and a tissue uptake at 72 h ([1]; brain, read-out: uptake Brain) of 0.03 %ID/g. The tissue uptake at 1 h [1, 8] was 1.72 ± 0.46 %ID/g, the tissue uptake at 24 h [1, 8] was 1.11 ± 0.71 %ID/g and the tissue uptake at 48 h [1, 8] was 0.71 ± 0.13 %ID/g. For the same compound, the tissue uptake at 72 h [1, 8] was 1.09 ± 0.61 %ID/g, the tissue uptake at 1 h ([1]; heart, read-out: uptake Heart) was 2.05 ± 0.37 %ID/g and the tissue uptake at 24 h ([1]; heart, read-out: uptake Heart) was 0.71 ± 0.05 %ID/g. For the same compound, the tissue uptake at 48 h ([1]; heart, read-out: uptake Heart) was 0.64 ± 0.06 %ID/g, the tissue uptake at 72 h ([1]; heart, read-out: uptake Heart) was 0.46 ± 0.11 %ID/g and the tissue uptake at 1 h [1, 9] was 20.9 ± 3.1 %ID/g. The tissue uptake at 24 h [1, 9] was 12.3 ± 1.24 %ID/g, the tissue uptake at 48 h [1, 9] was 10.1 ± 1.04 %ID/g and the tissue uptake at 72 h [1, 9] was 8.84 ± 1.15 %ID/g. For the same compound, the tissue uptake at 1 h [1, 10] was 6.31 ± 1.86 %ID/g, the tissue uptake at 4 h [1, 10] was less than 7 %ID/g and the tissue uptake at 24 h [1, 10] was 3.63 ± 0.09 %ID/g. It also gave a tissue uptake at 48 h [1, 10] of 3.13 ± 0.53 %ID/g, a tissue uptake at 72 h [1, 10] of 3.01 ± 0.44 %ID/g and a tissue uptake at 1 h ([1]; liver, read-out: uptake Liver) of 1.05 ± 0.05 %ID/g. For the same compound, the tissue uptake at 4 h ([1]; liver, read-out: uptake Liver) was less than 1 %ID/g, the tissue uptake at 24 h ([1]; liver, read-out: uptake Liver) was 0.22 ± 0.01 %ID/g and the tissue uptake at 48 h ([1]; liver, read-out: uptake Liver) was 0.16 ± 0.02 %ID/g. It also gave a tissue uptake at 72 h ([1]; liver, read-out: uptake Liver) of 0.12 ± 0.01 %ID/g, a tissue uptake at 1 h ([1]; lung, read-out: uptake Lung) of 2.68 ± 0.21 %ID/g and a tissue uptake at 24 h ([1]; lung, read-out: uptake Lung) of 1.1 ± 0.15 %ID/g. The tissue uptake at 48 h ([1]; lung, read-out: uptake Lung) was 0.68 ± 0.08 %ID/g, the tissue uptake at 72 h ([1]; lung, read-out: uptake Lung) was 0.53 ± 0.1 %ID/g and the tissue uptake at 1 h [1, 11] was 0.96 ± 0.24 %ID/g. For the same compound, the tissue uptake at 24 h [1, 11] was 0.52 ± 0.08 %ID/g, the tissue uptake at 48 h [1, 11] was 0.52 ± 0.03 %ID/g and the tissue uptake at 72 h [1, 11] was 0.42 ± 0.02 %ID/g. For the same compound, the tissue uptake at 1 h [1, 12] was 0.92 ± 0.07 %ID/g, the tissue uptake at 24 h [1, 12] was 0.6 ± 0.11 %ID/g and the tissue uptake at 48 h [1, 12] was 0.5 ± 0.09 %ID/g. It also gave a tissue uptake at 72 h [1, 12] of 0.36 ± 0.12 %ID/g, a tissue uptake at 1 h ([1]; skin, read-out: uptake Skin) of 2.16 ± 0.35 %ID/g and a tissue uptake at 24 h ([1]; skin, read-out: uptake Skin) of 1.49 ± 0.57 %ID/g. For the same compound, the tissue uptake at 48 h ([1]; skin, read-out: uptake Skin) was 0.95 ± 0.05 %ID/g, the tissue uptake at 72 h ([1]; skin, read-out: uptake Skin) was 1.08 ± 0.16 %ID/g and the tissue uptake at 1 h [1, 13] was 5.46 ± 0.54 %ID/g. For the same compound, the tissue uptake at 24 h [1, 13] was 3.02 ± 0.32 %ID/g, the tissue uptake at 48 h [1, 13] was 1.74 ± 0.22 %ID/g and the tissue uptake at 72 h [1, 13] was 0.71 ± 0.16 %ID/g. The tissue uptake at 1 h [1, 14] was 0.75 ± 0.03 %ID/g, the tissue uptake at 24 h [1, 14] was 0.12 ± 0.01 %ID/g and the tissue uptake at 48 h [1, 14] was 0.1 ± 0.02 %ID/g. The tissue uptake at 72 h [1, 14] was 0.1 ± 0.01 %ID/g, the tissue uptake at 1 h [1, 15] was 9.16 ± 0.58 %ID/g and the tissue uptake at 24 h [1, 15] was 7.55 ± 1.45 %ID/g. The tissue uptake at 48 h [1, 15] was 5.49 ± 0.27 %ID/g, the tissue uptake at 72 h [1, 15] was 4.76 ± 1.22 %ID/g and the BxPC-3/kidney ratio ([2]; 1 h p.i.) was 0.22±0.05. The BxPC-3/large intestine ratio ([2]; 1 h p.i.) was 0.77±0.25, the BxPC-3/stomach ratio ([2]; 1 h p.i.) was 0.50±0.08 and the “uptake Blood” value ([2]; 1 h p.i.) was 5.36±0.71 % ID/g. For the same compound, the “uptake BxPC-3 tumor” value ([2]; 1 h p.i.) was 4.54±0.42 % ID/g, the “uptake Kidneys” value ([2]; 1 h p.i.) was 20.89±3.1 % ID/g and the “uptake Stomach” value ([2]; 1 h p.i.) was 9.16±0.58 % ID/g. The BxPC-3/kidney ratio ([2]; 72 h p.i.) was 0.60±0.02, the BxPC-3/large intestine ratio ([2]; 72 h p.i.) was 1.77±0.26 and the BxPC-3/stomach ratio ([2]; 72 h p.i.) was 1.16±0.30. For the same compound, the “uptake Blood” value ([2]; 72 h p.i.) was 0.01±0.00 % ID/g, the “uptake BxPC-3 tumor” value ([2]; 72 h p.i.) was 5.29±0.75 % ID/g and the “uptake Kidneys” value ([2]; 72 h p.i.) was 8.84±1.15 % ID/g. The “uptake Stomach” value ([2]; 72 h p.i.) was 4.76±1.22 % ID/g, the “uptake in BxPC-3 tumor as compared to [^177Lu]Lu DOTA-5G” value ([2]; at all times (1-72 h)) was “at least 4 fold” and the tissue uptake at 4 h [3] was 4.12 %ID/g. For the same compound, the “change of BxPC-3 tumor uptake by blocking (Δ)” value [4] was −42%, the median survival post-treatment ([5]; Group 3, 1×74 MBq) was 82 days and the median survival post-treatment ([5]; Group 4, 2×37 MBq (days 0 and 7)) was 113 days. The “adverse events and weight loss during the study” value ([5]; any group, 120 days) was “No adverse events and weight loss” and the “adverse reaction to treatment in blood chemistry” value ([5]; mouse, in vivo) was “no adverse reaction”.
